Test results from patent publication US20050119186A1, “Potent peptide inhibitors and methods of use” (priority 2003, published 2005).
Where two headings read alike, the source gives them in different places. Positions of bridges follow the written chain, without caps; N, C: chain ends. Residues, ends and D or L forms follow the SMILES beside them. No end group written: not given here.

How the values were obtained:
ICAM-1/LFA-1 = biological target: T1, ICAM-1/LFA-1 (Homo sapiens, UniProt P05362); test: cellular aggregation blocking assay (LFA-1/ICAM-1 dependent cell aggregation); format: cell-based
T1 construct: endogenous in cells
T1 sequence (P05362 28-532): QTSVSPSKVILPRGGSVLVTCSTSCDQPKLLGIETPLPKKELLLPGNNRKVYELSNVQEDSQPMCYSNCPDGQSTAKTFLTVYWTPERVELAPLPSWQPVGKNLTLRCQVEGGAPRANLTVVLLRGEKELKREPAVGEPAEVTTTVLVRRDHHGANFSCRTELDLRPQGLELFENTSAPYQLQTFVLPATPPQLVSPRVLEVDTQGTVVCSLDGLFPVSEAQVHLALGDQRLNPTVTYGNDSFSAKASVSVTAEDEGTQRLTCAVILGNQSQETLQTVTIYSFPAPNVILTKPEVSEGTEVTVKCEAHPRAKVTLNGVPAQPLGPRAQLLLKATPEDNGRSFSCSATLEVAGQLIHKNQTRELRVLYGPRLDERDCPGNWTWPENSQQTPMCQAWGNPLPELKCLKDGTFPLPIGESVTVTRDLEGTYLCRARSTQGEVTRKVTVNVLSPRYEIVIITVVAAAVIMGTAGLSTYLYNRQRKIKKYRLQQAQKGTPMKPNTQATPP
Description: The inhibitory compound tested was a cyclic peptide containing nine amino acids that bind to ICAM-1, thereby inhibiting LFA-1/ICAM-1 binding. Using alanine replacement and homologous amino acid substitutions, we identified residues strategic to the antagonist activity were identified. A small set of such derived peptides was used as a training set for the inverse-QSAR. The activity or potency of the peptides is associated with an IC50 value, which measures the concentration that leads to half-maximal inhibition of receptor to ligand. Table 1, below, lists the amino acid sequence of sixteen such derived peptides with their IC50 values (given in μM), determined using a cellular aggregation blocking assay (J. Shannon, D. C. Brown, M. Silva, R. S. Larson, A cyclic peptide inhibits LFA-1/ICAM-1 mediated cell aggregation, J. Pept. Res. (2001) 1-14, L. Sillerud, E. Burks, D. C. Brown, R. S. Larson, NMR-derived solution model of potent ICAM-1 inhibitory peptide, J. Pept. 62 (2003) 97-116).
In brief, the aggregation of a cell line dependent on LFA-1 binding to ICAM-1 was used to measure the inhibitory capacity of each peptide. Inhibitory peptides and cells were seeded in flat-bottomed microtiter plates and allowed to aggregate. The number of aggregates and total number of free (single) cells were counted using inverted phase microscopy. The percent aggregation, P, was determined as P=100(1−F/I) (1) where F is the final number of free cells and I is the initial number of free cells. This percent aggregation was then used to calculate the percent inhibition, Pi as follows Pi=100(1−Pip/Pc) (2) where Pip is the percent aggregation with inhibitory peptide and Pc is the percent aggregation in the control experiment. The IC50 values were calculated from a line fit to the percent inhibition data as a function of inhibitory peptide concentration over the range from 10 μM to 1 mM. Each condition was performed in duplicate while each experiment was performed a minimum of three times.

[1] = biological target: T2, intercellular adhesion molecule-1 (ICAM-1) (human, UniProt P05362 28-532); test: cell-based or functional assay
T2 sequence (P05362 28-532): as above

[2] = biological target: T2, intercellular adhesion molecule-1 …; test: cell-based or functional assay; remark: listed apart in the source
[3] = Table 1, class by experimental IC50, read-out: Inhibitor strength

Row | Experimental IC50 (µM), cellular aggregation blocking assay [1] [µM] | Molecule | other results
1 |  | CC[C@H](C)[C@@H]1NC(=O)[C@H](CC(C)C)NC(=O)[C@@H](N)CSSC[C@@H](C(=O)O)NC(=O)[C@H](C)NC(=O)[C@H](CO)NC(=O)[C@H](CCCNC(=N)N)NC(=O)[C@H](CCSC)NC(=O)[C@H](CCCNC(=N)N)NC1=O [Peptide 4] (H-CLIRMRSAC-OH; disulfide 1-9) | IC50 (ICAM-1/LFA-1; [3]): 500 to 1000 µM; IC50 (ICAM-1/LFA-1; Table 1, peptide 10 μM to 1 mM, inhibition of cell aggregation, read-out: Experimental IC50): 720 µM
2 |  | CC[C@H](C)[C@@H]1NC(=O)[C@@H](N)CSSC[C@@H](C(=O)O)NC(=O)[C@H](C)NC(=O)[C@H](CO)NC(=O)[C@H](CCCCN)NC(=O)[C@H](CCSC)NC(=O)[C@H](CCCCN)NC(=O)[C@H](CC(C)C)NC1=O [Peptide 16] (H-CILKMKSAC-OH; disulfide 1-9) | IC50 (ICAM-1/LFA-1; [3]): ≤ 500 µM; IC50 (ICAM-1/LFA-1; strongest inhibitor in the training set, read-out: IC50 value): 40 µM
3 | > 1000 | CVLRMRSAC (disulfide 1-9) [Table 1 peptide 3, CVLRMRSAC (SEQ ID NO:23)] | 
4 |  | CASKMRSAC (disulfide 1-9) [Table 7 peptide 2, CASKMRSAC (SEQ ID NO:2)] | Actual IC50 value (µm), cellular assays [2]: 23 µM
5 | > 1000 | CLLRMRSLC (disulfide 1-9) [Table 1 peptide 8, CLLRMRSLC (SEQ ID NO:28)] | 
6 | 480 | CLLRMRSAC (disulfide 1-9) [Table 1 peptide 1, CLLRMRSAC (SEQ ID NO:21)] | 
7 | 710 | CLLRMRAIC (disulfide 1-9) [Table 1 peptide 15, CLLRMRAIC (SEQ ID NO:35)] | 
8 | 90 | CLLRMKSAC (disulfide 1-9) [Table 1 peptide 7, CLLRMKSAC (SEQ ID NO:27)] | 
9 | > 1000 | CLLRMASIC (disulfide 1-9) [Table 1 peptide 14, CLLRMASIC (SEQ ID NO:34)] | 
10 |  | CILKMRSVC (disulfide 1-9) [Table 7 peptide 10, CILKMRSVC (SEQ ID NO:10)] | Actual IC50 value (µm), cellular assays [2]: 28 µM
11 | > 1000 | CLVRMRSAC (disulfide 1-9) [Table 1 peptide 5, CLVRMRSAC (SEQ ID NO:25)] | 
12 | 40 | CILKMKSAC (disulfide 1-9) [Table 1 peptide 16, CILKMKSAC (SEQ ID NO:36)] | 
13 | 580 | CLLRMRSIC (disulfide 1-9) [Table 1 peptide 10, CLLRMRSIC (SEQ ID NO:30)] | 
14 | 720 | CLIRMRSAC (disulfide 1-9) [Table 1 peptide 4, CLIRMRSAC (SEQ ID NO:24)] | 
15 | 700 | CLLRMRSVC (disulfide 1-9) [Table 1 peptide 9, CLLRMRSVC (SEQ ID NO:29)] | 
16 | 105 | CLLKMRSAC (disulfide 1-9) [Table 1 peptide 6, CLLKMRSAC (SEQ ID NO:26)] | 
17 | > 1000 | CLARMRSIC (disulfide 1-9) [Table 1 peptide 12, CLARMRSIC (SEQ ID NO:32)] | 
18 | > 1000 | CALRMRSIC (disulfide 1-9) [Table 1 peptide 11, CALRMRSIC (SEQ ID NO:31)] | 
